Laboratory results as given in patent US20040185507A1.
One block for each substance: values may come before it.

What was measured:
[1] = target: alpha V integrins (αvβ3 and αvβ5) on human cells (human) (UniProt P06756); assay: cell-based or functional assay
[2] = target: alpha V integrins (αvβ3 and αvβ5) on human cells (human) (UniProt P06756); assay: 125-I antibody saturation binding on A375S2 cells (n = 5)
[3] = target: alpha V integrins (αvβ3 and αvβ5) on human cells (human) (UniProt P06756); assay: flow cytometry on M21 cells; labeled CNTO95 20 µg/mL; no competitor (saline)
[4] = target: alpha V integrins (αvβ3 and αvβ5) on human cells (human) (UniProt P06756); assay: 125-I antibody saturation binding on A375S2 cells (n = 7)
[5] = target: alpha V integrins (αvβ3 and αvβ5) on human cells (human) (UniProt P06756); assay: flow cytometry on M21 cells; labeled CNTO95 2 µg/mL; competitor LM609 (anti-αvβ3) 20 µg/mL; design: % Positive: reference not given here
[6] = target: alpha V integrins (αvβ3 and αvβ5) on human cells (human) (UniProt P06756); assay: flow cytometry on M21 cells; labeled CNTO95 2 µg/mL; competitor anti-β3 (Chemicon) 20 µg/mL
[7] = target: alpha V integrins (αvβ3 and αvβ5) on human cells (human) (UniProt P06756); assay: flow cytometry on M21 cells; labeled CNTO95 20 µg/mL; competitor anti-β3 (Chemicon) 20 µg/mL
[8] = target: alpha V integrins (αvβ3 and αvβ5) on human cells (human) (UniProt P06756); assay: flow cytometry on M21 cells; labeled CNTO95 20 µg/mL; competitor VNR139 (anti-αv) 20 µg/mL
[9] = target: alpha V integrins (αvβ3 and αvβ5) on human cells (human) (UniProt P06756); assay: flow cytometry on M21 cells; labeled CNTO95 20 µg/mL; competitor anti-β3 (AMAC) 20 µg/mL
[10] = target: alpha V integrins (αvβ3 and αvβ5) on human cells (human) (UniProt P06756); assay: 125-I antibody binding on A375S2 and M21 cells, rounded summary
[11] = target: alpha V integrins (αvβ3 and αvβ5) on human cells (human) (UniProt P06756); assay: flow cytometry on M21 cells; labeled CNTO95 2 µg/mL; no competitor (saline)
[12] = target: alpha V integrins (αvβ3 and αvβ5) on human cells (human) (UniProt P06756); assay: flow cytometry on M21 cells; labeled CNTO95 2 µg/mL; competitor P1F6 (anti-αvβ5) 20 µg/mL; design: % Positive: reference not given here
[13] = target: alpha V integrins (αvβ3 and αvβ5) on human cells (human) (UniProt P06756); assay: 125-I antibody saturation binding on M21 cells (n = 8)
[14] = target: alpha V integrins (αvβ3 and αvβ5) on human cells (human) (UniProt P06756); assay: flow cytometry on M21 cells; labeled CNTO95 2 µg/mL; competitor m7E3 IgG 20 µg/mL; design: % Positive: reference not given here
[15] = target: alpha V integrins (αvβ3 and αvβ5) on human cells (human) (UniProt P06756); assay: flow cytometry on M21 cells; labeled CNTO95 20 µg/mL; competitor m7E3 IgG 20 µg/mL
[16] = target: alpha V integrins (αvβ3 and αvβ5) on human cells (human) (UniProt P06756); assay: flow cytometry on M21 cells; labeled CNTO95 20 µg/mL; competitor LM609 (anti-αvβ3) 20 µg/mL
[17] = target: alpha V integrins (αvβ3 and αvβ5) on human cells (human) (UniProt P06756); assay: 125-I antibody saturation binding on M21 cells (n = 4)
[18] = target: alpha V integrins (αvβ3 and αvβ5) on human cells (human) (UniProt P06756); assay: flow cytometry on M21 cells; labeled CNTO95 20 µg/mL; competitor P1F6 (anti-αvβ5) 20 µg/mL
[19] = target: alpha V integrins (αvβ3 and αvβ5) on human cells (human) (UniProt P06756); assay: flow cytometry on M21 cells; labeled CNTO95 2 µg/mL; competitor anti-β3 (AMAC) 20 µg/mL
[20] = target: alpha V integrins (αvβ3 and αvβ5) on human cells (human) (UniProt P06756); assay: flow cytometry on M21 cells; labeled CNTO95 2 µg/mL; competitor VNR139 (anti-αv) 20 µg/mL
[21] = target: αvβ3 integrin on human cells (human) (UniProt P06756); assay: radiolabeled antibody binding on A375S2 cells (n = 2)
Chain of αvβ3 integrin on human cells (human) (P06756 31-1048, chain 1 of 2): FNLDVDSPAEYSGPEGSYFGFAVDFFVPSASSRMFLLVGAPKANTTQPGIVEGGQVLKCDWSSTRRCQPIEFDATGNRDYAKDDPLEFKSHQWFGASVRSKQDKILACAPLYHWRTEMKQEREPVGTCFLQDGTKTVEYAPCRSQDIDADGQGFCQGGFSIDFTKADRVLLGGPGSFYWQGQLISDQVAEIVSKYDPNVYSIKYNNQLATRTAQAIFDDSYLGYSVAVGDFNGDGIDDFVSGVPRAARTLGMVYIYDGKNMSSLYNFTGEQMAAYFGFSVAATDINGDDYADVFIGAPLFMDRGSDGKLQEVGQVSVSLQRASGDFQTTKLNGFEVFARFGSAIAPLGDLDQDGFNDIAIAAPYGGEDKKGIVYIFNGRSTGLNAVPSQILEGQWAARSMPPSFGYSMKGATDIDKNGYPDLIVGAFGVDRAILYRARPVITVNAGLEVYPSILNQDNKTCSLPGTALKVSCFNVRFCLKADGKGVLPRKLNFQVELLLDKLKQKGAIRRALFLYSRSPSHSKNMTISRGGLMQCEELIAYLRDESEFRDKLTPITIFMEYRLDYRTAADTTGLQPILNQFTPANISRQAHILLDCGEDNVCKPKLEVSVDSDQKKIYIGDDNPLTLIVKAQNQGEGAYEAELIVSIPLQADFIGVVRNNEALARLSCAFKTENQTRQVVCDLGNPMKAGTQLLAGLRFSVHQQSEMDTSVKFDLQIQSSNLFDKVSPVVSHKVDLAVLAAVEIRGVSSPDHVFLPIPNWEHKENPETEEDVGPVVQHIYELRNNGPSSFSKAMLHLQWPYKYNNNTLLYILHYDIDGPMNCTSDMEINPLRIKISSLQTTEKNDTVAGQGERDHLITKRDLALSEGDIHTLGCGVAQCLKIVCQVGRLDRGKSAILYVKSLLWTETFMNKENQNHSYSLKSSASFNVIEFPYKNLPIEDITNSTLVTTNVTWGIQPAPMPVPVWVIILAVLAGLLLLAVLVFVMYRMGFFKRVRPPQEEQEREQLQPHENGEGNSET
Chain of αvβ3 integrin on human cells (human) (P05106 27-788, chain 2 of 2, further chain): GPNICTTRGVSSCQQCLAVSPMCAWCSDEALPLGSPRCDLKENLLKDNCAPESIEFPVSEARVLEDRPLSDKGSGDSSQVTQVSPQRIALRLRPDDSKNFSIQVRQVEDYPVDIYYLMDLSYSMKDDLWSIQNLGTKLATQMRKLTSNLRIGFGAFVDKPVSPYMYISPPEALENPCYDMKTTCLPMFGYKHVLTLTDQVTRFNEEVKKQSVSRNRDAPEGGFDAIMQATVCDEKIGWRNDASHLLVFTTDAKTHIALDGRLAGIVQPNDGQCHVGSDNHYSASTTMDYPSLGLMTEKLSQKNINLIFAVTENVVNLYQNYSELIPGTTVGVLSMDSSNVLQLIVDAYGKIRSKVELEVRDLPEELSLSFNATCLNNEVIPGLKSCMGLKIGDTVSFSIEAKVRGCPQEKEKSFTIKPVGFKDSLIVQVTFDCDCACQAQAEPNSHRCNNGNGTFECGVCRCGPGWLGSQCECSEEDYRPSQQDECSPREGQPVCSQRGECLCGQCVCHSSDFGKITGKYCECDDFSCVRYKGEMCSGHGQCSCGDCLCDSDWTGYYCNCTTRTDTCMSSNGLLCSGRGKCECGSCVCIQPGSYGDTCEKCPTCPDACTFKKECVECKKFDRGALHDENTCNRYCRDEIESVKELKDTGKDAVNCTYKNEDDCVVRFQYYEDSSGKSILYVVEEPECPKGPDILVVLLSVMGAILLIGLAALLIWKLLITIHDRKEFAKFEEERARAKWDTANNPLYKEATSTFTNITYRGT

[22] = target: αvβ3 integrin on human cells (human) (UniProt P06756); assay: cell-based or functional assay
[23] = target: αvβ5 integrin on human cells (human) (UniProt P06756); assay: radiolabeled antibody binding on HT-29 cells (n = 1)
Chain of αvβ5 integrin on human cells (human) (P06756 31-1048, chain 1 of 2): as the sequence (P06756 31-1048, chain 1 of 2) above
Chain of αvβ5 integrin on human cells (human) (P18084 24-799, chain 2 of 2, further chain): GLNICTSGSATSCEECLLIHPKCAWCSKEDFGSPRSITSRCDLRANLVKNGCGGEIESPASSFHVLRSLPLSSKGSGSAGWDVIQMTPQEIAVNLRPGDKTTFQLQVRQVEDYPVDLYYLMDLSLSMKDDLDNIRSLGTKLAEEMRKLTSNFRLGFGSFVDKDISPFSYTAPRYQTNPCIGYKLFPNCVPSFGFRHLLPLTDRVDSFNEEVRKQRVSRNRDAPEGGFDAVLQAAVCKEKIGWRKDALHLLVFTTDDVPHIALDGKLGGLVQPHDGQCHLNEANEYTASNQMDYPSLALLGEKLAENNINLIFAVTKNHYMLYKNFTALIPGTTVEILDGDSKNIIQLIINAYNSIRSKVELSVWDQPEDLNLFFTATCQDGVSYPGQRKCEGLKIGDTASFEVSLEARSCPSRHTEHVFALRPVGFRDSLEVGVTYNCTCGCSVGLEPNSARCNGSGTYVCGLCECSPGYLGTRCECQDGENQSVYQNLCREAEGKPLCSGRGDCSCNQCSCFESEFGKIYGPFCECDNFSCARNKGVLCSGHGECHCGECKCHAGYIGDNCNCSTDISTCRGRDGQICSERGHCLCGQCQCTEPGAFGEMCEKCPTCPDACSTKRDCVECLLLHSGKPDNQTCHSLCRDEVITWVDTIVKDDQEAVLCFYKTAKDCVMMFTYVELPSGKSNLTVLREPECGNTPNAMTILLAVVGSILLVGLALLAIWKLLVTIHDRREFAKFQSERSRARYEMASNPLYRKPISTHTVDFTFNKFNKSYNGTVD

[24] = target: αvβ5 integrin on human cells (human) (UniProt P06756); assay: radiolabeled antibody binding on M21 cells (n = 2)
[25] = target: αvβ5 integrin on human cells (human) (UniProt P06756); assay: radiolabeled antibody binding on A375S2 cells (n = 4)
[26] = target: αvβ5 integrin on human cells (human) (UniProt P06756); assay: cell-based or functional assay

A375S.2 cell adhesion to fibrin, % of no-antibody control (10 µg/ml) [1]: 99.5%
A375S.2 cell adhesion to fibrinogen, % of no-antibody control (10 µg/ml) [1]: 102%
A375S.2 cell adhesion to fibronectin, % of no-antibody control (10 µg/ml) [1]: 100%
A375S.2 cell adhesion to gelatin, % of no-antibody control (10 µg/ml) [1]: 94.6%
A375S.2 cell adhesion to type I collagen, % of no-antibody control (10 µg/ml) [1]: 99.1%
A375S.2 cell adhesion to vitronectin, % of no-antibody control (10 µg/ml) [1]: 104%
HUVEC adhesion to fibrin, % of no-antibody control (10 µg/ml) [1]: 99.7%
HUVEC adhesion to fibrinogen, % of no-antibody control (10 µg/ml) [1]: 108%
HUVEC adhesion to fibronectin, % of no-antibody control (10 µg/ml) [1]: 96.8%
HUVEC adhesion to gelatin, % of no-antibody control (10 µg/ml) [1]: 109%
HUVEC adhesion to type I collagen, % of no-antibody control (10 µg/ml) [1]: 99.3%
HUVEC adhesion to vitronectin, % of no-antibody control (10 µg/ml) [1]: 96.3%
Substance: Human IgG (negative control) (antibody)

Kd [2]: 5.2 nM
% Positive [3]: 100%
MCF (Median Channel Fluorescence) [3]: 14.3
Receptors per cell (receptors/cell) [4]: 120000
% Positive [5]: 110%
MCF (Median Channel Fluorescence) [5]: 4.78
% Positive [6]: 125%
MCF (Median Channel Fluorescence) [6]: 5.42
% Positive [7]: 91%
MCF (Median Channel Fluorescence) [7]: 13.1
% Positive [8]: 104%
MCF (Median Channel Fluorescence) [8]: 14.9
% Positive [9]: 91%
MCF (Median Channel Fluorescence) [9]: 13.1
Kd [10]: 7 nM
% Positive [11]: 100%
MCF (Median Channel Fluorescence) [11]: 4.33
% Positive [12]: 112%
MCF (Median Channel Fluorescence) [12]: 4.87
Receptors per cell (receptors/cell) [13]: 200000
% Positive [14]: 132%
MCF (Median Channel Fluorescence) [14]: 5.73
% Positive [15]: 103%
MCF (Median Channel Fluorescence) [15]: 14.7
% Positive [16]: 93%
MCF (Median Channel Fluorescence) [16]: 13.3
Kd [17]: 8.5 nM
% Positive [18]: 101%
MCF (Median Channel Fluorescence) [18]: 14.5
% Positive [19]: 106%
MCF (Median Channel Fluorescence) [19]: 4.61
% Positive [20]: 106%
MCF (Median Channel Fluorescence) [20]: 4.61
A375S.2 cell adhesion to fibrin, % of no-antibody control (10 µg/ml) [1]: 43.3%
A375S.2 cell adhesion to fibrinogen, % of no-antibody control (10 µg/ml) [1]: 11.4%
A375S.2 cell adhesion to fibronectin, % of no-antibody control (10 µg/ml) [1]: 103%
A375S.2 cell adhesion to gelatin, % of no-antibody control (10 µg/ml) [1]: 23.2%
A375S.2 cell adhesion to type I collagen, % of no-antibody control (10 µg/ml) [1]: 104%
A375S.2 cell adhesion to vitronectin, % of no-antibody control (10 µg/ml) [1]: 1.4%
HUVEC adhesion to fibrin, % of no-antibody control (10 µg/ml) [1]: 45.1%
HUVEC adhesion to fibrinogen, % of no-antibody control (10 µg/ml) [1]: 34.5%
HUVEC adhesion to fibronectin, % of no-antibody control (10 µg/ml) [1]: 102%
HUVEC adhesion to gelatin, % of no-antibody control (10 µg/ml) [1]: 54.8%
HUVEC adhesion to type I collagen, % of no-antibody control (10 µg/ml) [1]: 97.7%
HUVEC adhesion to vitronectin, % of no-antibody control (10 µg/ml) [1]: 3.3%
Substance: CNTO 95 (antibody)

Receptors per cell (receptors/cell) [21]: 300000
A375S.2 cell adhesion to fibrin, % of no-antibody control (10 µg/ml) [22]: 50%
A375S.2 cell adhesion to fibrinogen, % of no-antibody control (10 µg/ml) [22]: 14%
A375S.2 cell adhesion to fibronectin, % of no-antibody control (10 µg/ml) [22]: 104%
A375S.2 cell adhesion to gelatin, % of no-antibody control (10 µg/ml) [22]: 25.2%
A375S.2 cell adhesion to type I collagen, % of no-antibody control (10 µg/ml) [22]: 100%
A375S.2 cell adhesion to vitronectin, % of no-antibody control (10 µg/ml) [22]: 42.1%
HUVEC adhesion to fibrin, % of no-antibody control (10 µg/ml) [22]: 48.1%
HUVEC adhesion to fibrinogen, % of no-antibody control (10 µg/ml) [22]: 14.3%
HUVEC adhesion to fibronectin, % of no-antibody control (10 µg/ml) [22]: 103%
HUVEC adhesion to gelatin, % of no-antibody control (10 µg/ml) [22]: 36.5%
HUVEC adhesion to type I collagen, % of no-antibody control (10 µg/ml) [22]: 109%
HUVEC adhesion to vitronectin, % of no-antibody control (10 µg/ml) [22]: 26.3%
Substance: LM609 (murine anti-human αvβ3 antibody, Chemicon)

Receptors per cell (receptors/cell) [23]: 73000
Receptors per cell (receptors/cell) [24]: 44000
Receptors per cell (receptors/cell) [25]: 70000
A375S.2 cell adhesion to fibrin, % of no-antibody control (10 µg/ml) [26]: 92.9%
A375S.2 cell adhesion to fibrinogen, % of no-antibody control (10 µg/ml) [26]: 99.4%
A375S.2 cell adhesion to fibronectin, % of no-antibody control (10 µg/ml) [26]: 101%
A375S.2 cell adhesion to gelatin, % of no-antibody control (10 µg/ml) [26]: 87.4%
A375S.2 cell adhesion to type I collagen, % of no-antibody control (10 µg/ml) [26]: 101%
A375S.2 cell adhesion to vitronectin, % of no-antibody control (10 µg/ml) [26]: 28.5%
HUVEC adhesion to fibrin, % of no-antibody control (10 µg/ml) [26]: 96.7%
HUVEC adhesion to fibrinogen, % of no-antibody control (10 µg/ml) [26]: 94.5%
HUVEC adhesion to fibronectin, % of no-antibody control (10 µg/ml) [26]: 103%
HUVEC adhesion to gelatin, % of no-antibody control (10 µg/ml) [26]: 94.4%
HUVEC adhesion to type I collagen, % of no-antibody control (10 µg/ml) [26]: 116%
HUVEC adhesion to vitronectin, % of no-antibody control (10 µg/ml) [26]: 39.8%
Substance: P1F6 (murine anti-human αvβ5 antibody)
